{
  "source": "patent US9422609B2",
  "about": "“Methods, compositions and devices for maintaining chemical balance of chlorinated water” (priority 2006, dated 2016)",
  "origin": "cited, not measured here",
  "conditions": "hydrolysis of cyanuric acid",
  "data": [
    {"molecule": "cyanuric acid amidohydrolase from strain ADP of Pseudomonas sp.: cyanuric acid amidohydrolase (EC 3.5.2.15) from strain ADP of Pseudomonas sp. (protein, UniProt P58329 1-363, looked up) Cyanuric acid amidohydrolase: MYHIDVFRIPCHSPGDTSGLEDLIETGRVAPADIVAVMGKTEGNGCVNDYTREYATAMLAACLGRHLQLPPHEVEKRVAFVMSGGTEGVLSPHHTVFARRPAIDAHRPAGKRLTLGIAFTRDFLPEEIGRHAQITETAGAVKRAMRDAGIASIDDLHFVQVKCPLLTPAKIASARSRGCAPVTTDTYESMGYSRGASALGIALATEEVPSSMLVDESVLNDWSLSSSLASASAGIELEHNVVIAIGMSEQATSELVIAHGVMSDAIDAASVRRTIESLGIRSDDEMDRIVNVFAKAEASPDGVVRGMRHTMLSDSDINSTRHARAVTGAAIASVVGHGMVYVSGGAEHQGPAGGGPFAVIARA", "values": [
      {"measurement": "Km", "result": 71, "unit": "µM"},
      {"measurement": "Vmax", "result": 8.4, "unit": "µmol/min/mg"},
      {"measurement": "turnover rate", "result": 3, "unit": "reactions per second"}
    ]}
  ]
}
